Laboratory results from PMC2921000 (Nature, 2010).

Target: T1, Spc98p (Saccharomyces cerevisiae, UniProt P53540 1-846)
T1 sequence: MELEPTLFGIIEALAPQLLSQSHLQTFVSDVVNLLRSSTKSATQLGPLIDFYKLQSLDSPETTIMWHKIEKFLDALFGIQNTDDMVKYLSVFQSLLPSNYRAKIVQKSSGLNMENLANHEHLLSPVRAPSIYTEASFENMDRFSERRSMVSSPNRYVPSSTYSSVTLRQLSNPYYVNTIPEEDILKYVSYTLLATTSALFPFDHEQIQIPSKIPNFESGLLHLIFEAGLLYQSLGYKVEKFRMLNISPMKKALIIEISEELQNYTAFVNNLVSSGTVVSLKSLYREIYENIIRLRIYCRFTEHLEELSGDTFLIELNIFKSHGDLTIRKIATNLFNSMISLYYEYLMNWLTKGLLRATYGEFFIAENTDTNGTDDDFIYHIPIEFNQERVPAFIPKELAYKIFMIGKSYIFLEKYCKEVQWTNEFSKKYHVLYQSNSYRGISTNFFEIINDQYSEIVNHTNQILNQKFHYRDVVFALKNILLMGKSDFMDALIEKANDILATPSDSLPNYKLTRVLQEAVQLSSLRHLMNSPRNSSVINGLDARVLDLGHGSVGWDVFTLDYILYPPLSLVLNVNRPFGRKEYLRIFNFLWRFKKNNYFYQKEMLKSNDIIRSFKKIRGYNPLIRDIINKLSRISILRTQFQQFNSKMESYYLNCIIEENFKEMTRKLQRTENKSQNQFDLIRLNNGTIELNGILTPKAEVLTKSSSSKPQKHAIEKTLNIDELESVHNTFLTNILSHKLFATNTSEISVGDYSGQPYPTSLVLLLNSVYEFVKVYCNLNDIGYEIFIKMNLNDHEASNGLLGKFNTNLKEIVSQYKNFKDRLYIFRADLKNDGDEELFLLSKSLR
Assay: cryo-EM structure

binding result: binds
B1: Spc97p (natural protein)
chain: MEIKEVDDRAELLRYTNNIPLLGKLVNHQPLWSTNPKLKSFSLEKISAPDQRRVQEALVVKDLLNVLIGLEGTYIRYFNDYEPSDPETPIEFKIAKKMDPSFKTFSRRIVRYGKQYMILTRAYEKWSDTSFGMVLQRFAYEIRRFLEDVYLKTLVERLERDFNKVPNFSIRELEQIINETEVNKQMELLYNIYEEIFREIEERRTNQSSQEDFNNFMDSMKNESSLHLRLMVAFDTTVYPVPKGGAILKIFQQKILENLGDRSSVMFLKKLLNNISQDYCTMLYEWLTQGILNDPYQEFMTYDDLEGKTDNIFDTRDRAWDTQYFIRKDVLLRDCDSEEDKNLLFKMLRTGILLKVVRASLQIPTIPSNSSDITIQEINDFADLMEGSNLELYVDKCYSRANEIFLKLFFQGYDLINVLKHLQQIFLGYQSGHNVLKFLTKNMGELTKHYRNDNNANYDKLLQNFELERQSENPNNLMRQLLMIQFDTETLPQVLSHYLQIYPEVPENNSANDDSDPLMHANNFKNMNAILFDELSKERTGAYHGSNLELYTPKSAIYHLKFDINIPYPLNIIISRTCMIKYQIILRYQLVLQYHSRLLDETWMDLNKTPSWKYRGYSHTVKRRIVRATRVLHAKMNHFIKTIMEYFNQNVIDKEVYSLEKCYRNPTLAVAIQNELEGGLTNIMTNRCLSDLIPLQLQIFDIVYKFCKFIKSMRAKLCQLDPVLYEKHKSGMMKTLNEGYRTNNGGQEDVGYQEDAALELIQKLIEYISNASSIFRKCLINFTQELSTEKFDFYDSSSVDAAGIERVLYSIVPPRSASASSQR
